“And” between values parts separate entries of the source, which are not always exact repeats. Equal values may be shown once.

Assay [1] addresses T1, mFc-hNKG2D (human, UniProt P26718 73-216).
T1 construct: extracellular domain; Made in house (Dragonfly Tx); the order of tag and ECD follows the name mFc-hNKG2D; also called mFc-tagged human NKG2D; not shown: mouse Fc tag
T1 sequence (looked up): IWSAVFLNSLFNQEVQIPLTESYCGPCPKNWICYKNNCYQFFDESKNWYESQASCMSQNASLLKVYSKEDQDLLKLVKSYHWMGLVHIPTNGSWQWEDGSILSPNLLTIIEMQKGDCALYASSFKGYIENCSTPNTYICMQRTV
Kind of assay: SPR Biacore 8K 37 C; mFc-hNKG2D captured on anti-mFc chip, TriNKET as analyte; 1:1 kinetic fit; pH 8.0 control.

Assay [2] has as its target T2, Human CLEC12A-His (human, UniProt Q5QGZ9 65-265).
T2 construct: Recombinant soluble protein made in house (Dragonfly Tx); The hCLEC12A spot of the HuProt array is written under this molecule as well; also called hCLEC12A-His; hCLEC12A; not shown: His tag
T2 sequence: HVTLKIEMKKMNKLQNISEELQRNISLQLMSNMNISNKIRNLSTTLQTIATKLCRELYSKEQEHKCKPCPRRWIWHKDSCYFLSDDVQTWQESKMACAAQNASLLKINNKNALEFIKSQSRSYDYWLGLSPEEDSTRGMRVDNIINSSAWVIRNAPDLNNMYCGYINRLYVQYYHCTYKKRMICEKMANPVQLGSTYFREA
Briefly: SPR Biacore 8K 37 C; TriNKET captured on anti-hFc chip, hCLEC12A-His as analyte; 1:1 fit; after 2 wks 2-8 C in CST pH 7.0, n=2.

The target of assay [3] is T3, Human FcRn (human, UniProt P55899 24-297; P61769 21-119).
T3 construct: Bought recombinant receptor; also called hFcRn
Kind of assay: SPR, steady state fit.

Assay [4] has as its target T4, Cynomolgus FcRn (cynomolgus monkey, UniProt Q8SPV9 24-297; Q8SPW0 21-119).
T4 construct: Bought recombinant receptor; also called cFcRn; Cyno FcRn
Briefly: SPR, steady state fit.

Assay [5] has as its target T5, Human CD64 (human, UniProt P12314 16-288, biotinylated).
T5 construct: Bought recombinant receptor; also called hFcγRI; Human CD64 (FcγRI)
Kind of assay: SPR, human CD64 captured; average for AB0192.

For assay [6], the target named is T6, recombinant human CD32a R131 (human, UniProt P12318 36-218, limits assumed, biotinylated).
T6 construct: also called FcγRIIa R131
T6 sequence (looked up): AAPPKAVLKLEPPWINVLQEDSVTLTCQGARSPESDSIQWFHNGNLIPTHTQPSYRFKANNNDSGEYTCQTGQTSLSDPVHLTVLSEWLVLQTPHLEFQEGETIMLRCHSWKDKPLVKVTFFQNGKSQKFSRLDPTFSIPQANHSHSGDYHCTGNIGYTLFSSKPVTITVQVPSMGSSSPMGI
Kind of assay: SPR 25C, steady state, average.

T4 sequence (Q8SPV9 24-297 limits assumed, chain 1 of 2): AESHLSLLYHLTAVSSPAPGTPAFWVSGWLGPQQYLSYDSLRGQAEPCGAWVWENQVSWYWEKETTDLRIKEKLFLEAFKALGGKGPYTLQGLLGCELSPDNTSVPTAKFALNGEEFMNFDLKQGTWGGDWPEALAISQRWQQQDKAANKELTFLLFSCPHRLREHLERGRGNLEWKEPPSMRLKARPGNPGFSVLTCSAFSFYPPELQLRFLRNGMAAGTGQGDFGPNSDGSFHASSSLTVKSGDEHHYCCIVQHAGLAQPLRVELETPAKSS
T4 sequence (Q8SPW0 21-119 limits assumed, chain 2 of 2): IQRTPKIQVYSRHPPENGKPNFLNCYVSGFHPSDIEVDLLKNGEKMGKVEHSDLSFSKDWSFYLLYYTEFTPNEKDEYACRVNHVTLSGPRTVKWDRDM
T5 sequence (P12314 16-288 limits assumed): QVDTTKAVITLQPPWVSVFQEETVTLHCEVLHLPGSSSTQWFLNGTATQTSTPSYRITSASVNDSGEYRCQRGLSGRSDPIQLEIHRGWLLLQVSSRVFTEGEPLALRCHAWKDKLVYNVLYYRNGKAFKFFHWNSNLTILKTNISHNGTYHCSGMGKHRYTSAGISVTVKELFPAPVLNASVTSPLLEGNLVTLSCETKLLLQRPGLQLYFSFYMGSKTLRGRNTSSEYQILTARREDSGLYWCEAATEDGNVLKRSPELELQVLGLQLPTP
T3 sequence (P55899 24-297 limits assumed, chain 1 of 2): as the sequence (Q8SPV9 24-297 limits assumed, chain 1 of 2) above, with D39N, Q44E, S99G, G189S, N190S, M217L, T269S counted along it
T3 sequence (P61769 21-119 limits assumed, chain 2 of 2): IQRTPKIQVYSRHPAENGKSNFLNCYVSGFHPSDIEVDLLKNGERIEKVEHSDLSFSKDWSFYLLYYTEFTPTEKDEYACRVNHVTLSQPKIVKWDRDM

B1: F3'-1602 TriNKET (bispecific antibody, human IgG1, kappa)
chain: QLQLQESGPGLVKPSETLSLTCTVSGFSLTNYGLHWIRQPPGKCLEWIGVIWSGGKTDYNPSLKSRVTISKDTSKNQFSLKLSSVQAADTAVYYCAKYDYDDSLDYWGQGTLVTVSSGGGGSGGGGSGGGGSGGGGSDIQMTQSPSSLSASVGDRVTITCHASQNINFWLSWYQQKPGKAPKLLIYEASNLHTGVPSRFSGSGSGTRFTLTISSLQPEDIATYYCQQSHSYPLTFGCGTKLEIKGSDKTHTCPPCPAPELLGGPSVFLFPPKPKDTLMISRTPEVTCVVVDVSHEDPEVKFNWYVDGVEVHNAKTKPREEQYNSTYRVVSVLTVLHQDWLNGKEYKCKVSNKALPAPIEKTISKAKGQPREPRVYTLPPCRDELTKNQVSLTCLVKGFYPSDIAVEWESNGQPENNYKTTPPVLVSDGSFTLYSKLTVDKSRWQQGNVFSCSVMHEALHNHYTQKSLSLSPG
heavy: EVQLVESGGGLVKPGGSLRLSCAASGFTFSSYSMNWVRQAPGKGLEWVSSISSSSSYIYYADSVKGRFTISRDNAKNSLYLQMNSLRAEDTAVYYCARGAPIGAAAGWFDPWGQGTLVTVSSASTKGPSVFPLAPSSKSTSGGTAALGCLVKDYFPEPVTVSWNSGALTSGVHTFPAVLQSSGLYSLSSVVTVPSSSLGTQTYICNVNHKPSNTKVDKKVEPKSCDKTHTCPPCPAPELLGGPSVFLFPPKPKDTLMISRTPEVTCVVVDVSHEDPEVKFNWYVDGVEVHNAKTKPREEQYNSTYRVVSVLTVLHQDWLNGKEYKCKVSNKALPAPIEKTISKAKGQPREPQVCTLPPSRDELTENQVSLTCLVKGFYPSDIAVEWESNGQPENNYKTTPPVLDSDGSFFLYSWLTVDKSRWQQGNVFSCSVMHEALHNHYTQKSLSLSPG
light: DIQMTQSPSSVSASVGDRVTITCRASQGISSWLAWYQQKPGKAPKLLIYAASSLQSGVPSRFSGSGSGTDFTLTISSLQPEDFATYYCQQGVSFPRTFGGGTKVEIKRTVAAPSVFIFPPSDEQLKSGTASVVCLLNNFYPREAKVQWKVDNALQSGNSQESVTEQDSKDSTYSLSSTLTLSKADYEKHKVYACEVTHQGLSSPVTKSFNRGEC
notes: Trispecific F3' format: CLEC12A scFv-Fc paired with NKG2D Fab-Fc; Stressed and control samples of the stability studies are the same molecule; also called AB0237
Regarding B1, in assay [1], binding was characterised by a dissociation constant (Kd) of 0.694 µM, the koff was 0.125 s⁻¹ and the on-rate constant (kon) is 180000 M⁻¹ s⁻¹. In assay [2], the Kd came to 0.00089 µM, the koff worked out at 0.0006 s⁻¹ and the kon came to 672000 M⁻¹ s⁻¹.

B2: AB0192 TriNKET (other)
chain: EVQLVESGGGVVQPGGSLRLSCAASGFTFNAFGMHWVRQAPGKCLEWVAFISSGSTSIYYANTVKGRFTISRDNSKNTLYLQMNSLRAEDTAVYYCARDGYPTGGAMDYWGQGTSVTVSSGGGGSGGGGSGGGGSGGGGSDIQMTQSPSSLSASVGDRVTITCKASQDIYNYLSWFQQKPGKAPKPLIYRANILVSGVPSRFSGSGSGQDYTFTISSLQPEDIATYYCLQFDAFPFTFGCGTKLEIKGSDKTHTCPPCPAPELLGGPSVFLFPPKPKDTLMISRTPEVTCVVVDVSHEDPEVKFNWYVDGVEVHNAKTKPREEQYNSTYRVVSVLTVLHQDWLNGKEYKCKVSNKALPAPIEKTISKAKGQPREPRVYTLPPCRDELTKNQVSLTCLVKGFYPSDIAVEWESNGQPENNYKTTPPVLVSDGSFTLYSKLTVDKSRWQQGNVFSCSVMHEALHNHYTQKSLSLSPG
heavy: EVQLVESGGGLVKPGGSLRLSCAASGFTFSSYSMNWVRQAPGKGLEWVSSISSSSSYIYYADSVKGRFTISRDNAKNSLYLQMNSLRAEDTAVYYCARGAPIGAAAGWFDPWGQGTLVTVSSASTKGPSVFPLAPSSKSTSGGTAALGCLVKDYFPEPVTVSWNSGALTSGVHTFPAVLQSSGLYSLSSVVTVPSSSLGTQTYICNVNHKPSNTKVDKKVEPKSCDKTHTCPPCPAPELLGGPSVFLFPPKPKDTLMISRTPEVTCVVVDVSHEDPEVKFNWYVDGVEVHNAKTKPREEQYNSTYRVVSVLTVLHQDWLNGKEYKCKVSNKALPAPIEKTISKAKGQPREPQVCTLPPSRDELTENQVSLTCLVKGFYPSDIAVEWESNGQPENNYKTTPPVLDSDGSFFLYSWLTVDKSRWQQGNVFSCSVMHEALHNHYTQKSLSLSPG
light: DIQMTQSPSSVSASVGDRVTITCRASQGISSWLAWYQQKPGKAPKLLIYAASSLQSGVPSRFSGSGSGTDFTLTISSLQPEDFATYYCQQGVSFPRTFGGGTKVEIKRTVAAPSVFIFPPSDEQLKSGTASVVCLLNNFYPREAKVQWKVDNALQSGNSQESVTEQDSKDSTYSLSSTLTLSKADYEKHKVYACEVTHQGLSSPVTKSFNRGEC
notes: the condition stands under assay; also called AB0192 Lot AB0192-005
As for B2, the Kd in assay [3] is 1.5 µM and 1.3 µM. In addition, in assay [4], the Kd is 1.5 µM and 1.4 µM and 1.2 µM. In assay [5], binding was put at a Kd of 0.0052 µM, the koff worked out at 0.00025 s⁻¹ and the kon turned out to be 48000 M⁻¹ s⁻¹.

B3: F3'-1602 TriNKET (other)
chain: QLQLQESGPGLVKPSETLSLTCTVSGFSLTNYGLHWIRQPPGKCLEWIGVIWSGGKTDYNPSLKSRVTISKDTSKNQFSLKLSSVQAADTAVYYCAKYDYDDSLDYWGQGTLVTVSSGGGGSGGGGSGGGGSGGGGSDIQMTQSPSSLSASVGDRVTITCHASQNINFWLSWYQQKPGKAPKLLIYEASNLHTGVPSRFSGSGSGTRFTLTISSLQPEDIATYYCQQSHSYPLTFGCGTKLEIKGSDKTHTCPPCPAPELLGGPSVFLFPPKPKDTLMISRTPEVTCVVVDVSHEDPEVKFNWYVDGVEVHNAKTKPREEQYNSTYRVVSVLTVLHQDWLNGKEYKCKVSNKALPAPIEKTISKAKGQPREPRVYTLPPCRDELTKNQVSLTCLVKGFYPSDIAVEWESNGQPENNYKTTPPVLVSDGSFTLYSKLTVDKSRWQQGNVFSCSVMHEALHNHYTQKSLSLSPG
heavy: EVQLVESGGGLVKPGGSLRLSCAASGFTFSSYSMNWVRQAPGKGLEWVSSISSSSSYIYYADSVKGRFTISRDNAKNSLYLQMNSLRAEDTAVYYCARGAPIGAAAGWFDPWGQGTLVTVSSASTKGPSVFPLAPSSKSTSGGTAALGCLVKDYFPEPVTVSWNSGALTSGVHTFPAVLQSSGLYSLSSVVTVPSSSLGTQTYICNVNHKPSNTKVDKKVEPKSCDKTHTCPPCPAPELLGGPSVFLFPPKPKDTLMISRTPEVTCVVVDVSHEDPEVKFNWYVDGVEVHNAKTKPREEQYNSTYRVVSVLTVLHQDWLNGKEYKCKVSNKALPAPIEKTISKAKGQPREPQVCTLPPSRDELTENQVSLTCLVKGFYPSDIAVEWESNGQPENNYKTTPPVLDSDGSFFLYSWLTVDKSRWQQGNVFSCSVMHEALHNHYTQKSLSLSPG
light: DIQMTQSPSSVSASVGDRVTITCRASQGISSWLAWYQQKPGKAPKLLIYAASSLQSGVPSRFSGSGSGTDFTLTISSLQPEDFATYYCQQGVSFPRTFGGGTKVEIKRTVAAPSVFIFPPSDEQLKSGTASVVCLLNNFYPREAKVQWKVDNALQSGNSQESVTEQDSKDSTYSLSSTLTLSKADYEKHKVYACEVTHQGLSSPVTKSFNRGEC
notes: CLEC12A scFv-Fc, NKG2D A49MI Fab-Fc, human IgG1 Fc; also called AB0237
For B3, the Kd in assay [6] is 1.4 µM.

The values are drawn from US20220119534A1 (DRAGONFLY THERAPEUTICS, published 2022).
